Here are results for 1 substance from patent publication US6953794.

The test deals with truncated core tau unit terminating at Ala-390 (human) (UniProt P10636). The experiment in a line: ELISA tau-tau binding assay; core tau unit in the solid phase, full-length tau in the aqueous phase. A general note: An ELISA detects its analyte on a solid surface through an enzyme-linked reagent.
truncated core tau unit terminating at Ala-390 (human), sequence (P10636 614-707 limits assumed): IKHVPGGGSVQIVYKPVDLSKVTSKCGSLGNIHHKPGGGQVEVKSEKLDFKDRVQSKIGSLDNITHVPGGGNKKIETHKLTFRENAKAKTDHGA

Turning to “normal full-length tau protein (the particular tau species/isoform tested)”, the Kd (commonly the free concentration of one partner at which half of the binding sites on the other are occupied at equilibrium, for simple one-to-one binding) lay in the range of 8 to 25 nM.
